Values quoted from earlier work in publication PMC5431918 (Scientific Reports, 2017).

Text: As PAC1, VPAC1 and VPAC2 mRNAs were detected in a rat insulinoma cell line with PAC1 binding prevailing over that of VPAC1 and VPAC2[23], the PAC1 receptor seemed to be a promising alternative for targeting insulinomas. The natural mammalian ligands at the PAC1 receptor are PACAP38 and the truncated form PACAP27. They bind to PAC1, ...

Substance | Stability in plasma
PACAP27: truncated form of PACAP38; non-selective PAC1/VPAC1/VPAC2 ligand | unstable in plasma
PACAP38: natural mammalian ligand at the PAC1 receptor; non-selective PAC1/VPAC1/VPAC2 ligand | unstable in plasma
